Assay results published in paper PMC2831303.
Values belong to the molecule of their own block, whether it stands above or below them.

How the values were obtained:
[1] = molecular target: NorRΔGAF (GAF domain deleted form of E. coli NorR) (E. coli)
[2] = molecular target: NorRΔGAF (GAF domain deleted form of E. coli NorR) (E. coli); assay: SEC
[3] = molecular target: NorRΔGAF (GAF domain deleted form of E. coli NorR) (E. coli); assay: negative-stain electron microscopy
NorRΔGAF [4] = molecular target: T1, NorRΔGAF (Escherichia coli, UniProt P37013 178-504); assay: gel filtration
T1 sequence: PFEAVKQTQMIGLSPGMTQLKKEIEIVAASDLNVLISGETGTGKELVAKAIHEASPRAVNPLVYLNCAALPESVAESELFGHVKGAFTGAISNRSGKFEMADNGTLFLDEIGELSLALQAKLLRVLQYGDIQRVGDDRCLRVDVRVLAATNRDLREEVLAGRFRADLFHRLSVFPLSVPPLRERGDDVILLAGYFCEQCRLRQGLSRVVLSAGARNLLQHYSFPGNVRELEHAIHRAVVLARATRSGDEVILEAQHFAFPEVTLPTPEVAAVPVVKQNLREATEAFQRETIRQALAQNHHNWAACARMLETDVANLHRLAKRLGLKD

NorRΔGAF [5] = molecular target: T1, NorRΔGAF; assay: EMSA

ATPase activity against NorRΔGAF concentration with 21 bp NorR1 DNA (1:1): Keff [1]: 8.4 µM
stoichiometry N [2]: 2
stoichiometry N [3]: 6
Molecule: NorRΔGAF (GAF domain deleted form of E. coli NorR) (domain or fragment)

B1: NorR1 21 bp (dsDNA)
DNA 1: GATAGTCATTTTGACTACTCA
DNA 2: TGAGTAGTCAAAATGACTATC
binding result (NorRΔGAF [4]): binds

B2: NorR123 66 bp (dsDNA)
DNA 1: TCACTGTCAATTTGACTATAGATATTGTCATATCGACCATTTGATTGATAGTCATTTTGACTACTC
DNA 2: GAGTAGTCAAAATGACTATCAATCAAATGGTCGATATGACAATATCTATAGTCAAATTGACAGTGA
Kd (NorRΔGAF [5]): 0.174 µM
